Results published in patent US9932382B2, “Kv2.1 channel-derived peptides and methods of use” (University of Pittsburgh—Of the Commonwealth System of …, priority 2014, dated 2018).

Tested on: neurons
Assay: Current clamp / dynamic clamp electrical properties of neurons
Assay type: cell-based
Description: For electrophysiological experiments, mixed cortical neuronal/glial cultures were prepared from embryonic day 16 (E16) Sprague-Dawley rats (Charles River Laboratories, Wilmington, Mass., USA). Donor rats were euthanized by gradual CO2 exposure. Cortices were dissociated with trypsin, and the resultant cell suspension, adjusted to 670,000 cells per well, was plated on glass coverslips in 6-well plates as described previously (Hartnett et al., J Neurochem 68, 1836-1845, 1997). Non-neuronal cell proliferation was inhibited after two weeks in culture with 1-2 μM cytosine arabinoside, and cultures utilized at three to four weeks in vitro. For neuronal transfection, cells were treated for five hours in serum-free medium with 2 μL LIPOFECTAMINE™ 2000 (Invitrogen, Carlsbad, Calif.), 50 μL Optimem (GIBCO, Grand Island, N.Y.), and 1.5 μg DNA per well. For CHO cell transfections, cells were plated on coverslips in 24-well plates at a density of 5.6×10^4 cells per well for electrophysiological measurements or in 100 mm dishes at a density of 1.7×10^6 cells per dish for biochemical studies. Cells were treated for 3-4 hours in serum-free medium with a total of 1.2 μL LIPOFECTAMINE™ and 0.28 μg DNA per well for electrophysiology, or 55.1 μL LIPOFECTAMINE™ and 7.33 μg DNA per dish for biochemistry. Following transfection, cells were maintained in F12 medium containing fetal bovine serum at 37° C., 5% CO2 for 24 hours prior to experimentation.
Current recordings were performed on eGFP-positive co-transfected neurons or CHO cells using the whole-cell patch clamp configuration technique as described previously (McLaughlin et al., J Neurosci 21, 3303-3311, 2001). The intracellular (electrode) solution contained (in mM): 100 K-gluconate, 11 EGTA, 10 KCl, 1 MgCl2, 1 CaCl2×2H2O, 10 HEPES; pH adjusted to 7.2 with concentrated KOH; 2.2 ATP and 0.33 GTP were added and the osmolarity was adjusted to 280 mOsm with sucrose. The extracellular solution contained (in mM): 115 NaCl, 2.5 KCl, 2.0 MgCl2, 10 HEPES, 10 D-glucose; 0.25 μM tetrodotoxin; pH adjusted to 7.2. Measurements were obtained under whole-cell voltage clamp with an Axopatch-1D amplifier and pClamp software (Molecular Devices, Sunnyvale, Calif.), using 2-3 MΩ recording electrodes. Electrodes were pulled from 1.5 mm borosilicate glass (Warner Instruments, Hamden, Conn.) with a model P-97 mechanical pipette puller (Sutter Instruments, Novato, Calif.). Series resistance was partially compensated (80%) in all cases. Currents were filtered at 2 kHz and digitized at 10 kHz with a Digidata 1440A Digitizer (Molecular Devices). K^+ currents were evoked with incremental 10 mV voltage steps to +80 mV from a holding potential of −80 mV. To determine current density values, steady-state current amplitudes were measured 180 msec after the initiation of the +10 mV step and normalized to cell capacitance. For current clamp experiments, the intracellular (electrode) solution contained (in mM): 94 K-gluconate, 30 KCl, 10 phosphocreatine di-tris salt, 10 HEPES, 0.2 EGTA, 4 ATP, 0.3 GTP; pH adjusted to 7.3 with concentrated KOH. […] By repeatedly adjusting the scaling factor k, an automated binary search algorithm determined threshold synaptic conductance (thresh-gsyn), the conductance required to reach firing threshold (Kullmann et al., J Neurophysiol 91, 542-54, 2004).
It was next evaluated whether C1a441-522 was sufficient to protect neurons against oxidative injury. […]

B1: C1a441-522: distal segment of C1a, residues 441-522 of rat Kv2.1 (protein, UniProt P15387 441-522, looked up, fragment)
chain: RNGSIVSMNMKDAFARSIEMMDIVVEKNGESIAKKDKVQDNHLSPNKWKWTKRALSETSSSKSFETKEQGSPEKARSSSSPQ
overall effect of expression on neurons: relatively innocuous to neurons
firing frequency as a function of depolarizing current versus vector-expressing neurons (1 sec depolarizing current steps, 15-120 pA): small but significant increase
input resistance versus vector-expressing neurons (current clamp): no differences
resting membrane potential versus vector-expressing neurons (current clamp): no differences
threshold synaptic conductance versus vector-expressing neurons (dynamic clamp): no differences
